The source of these data is US9540424B2, “Serum albumin binding molecules” (BRISTOL-MYERS SQUIBB COMPANY, priority 2010, dated 2017).

In test [1] the target is T1, CySA (Macaca fascicularis, UniProt A2V9Z4).
T1 construct: purchased Equitech-Bio CMSA
The test is described as follows: SPR (Biacore T100) kinetics of FGF21-SABA1 fusions: CySA. To be noted: flow rate 30 μl/min. It counts as binding, cynomolgous monkey. On the procedure:
(§1) The binding competency and thermodynamic characterization of FGF21-SABA fusion variants to human serum albumin were performed using Isothermal Titration calorimetry on a Microcal VP-ITC instrument (Microcal Inc. Amherst Mass., USA). […] The detailed experimental conditions are described below.
(§2) For the calorimetry assay, the FGF21-SABA variant SABA1-FGF21v1 (SEQ ID NO: 132) was used. […] For the SPR studies, SABA1-FGF21v1 and SABA1-FGF21v3 (SEQ ID NO: 134) were examined.
(§3) Serum albumins were dissolved in PBS buffer (10 mM sodium phosphate, 130 mM sodium chloride, pH 7.1) to a concentration of 10 mg/ml, and subsequently diluted to 8-10 μg/ml in 10 mM sodium acetate pH 5.0 for immobilization. Serum albumins were immobilized on a Series S CMS sensor chip using standard ethyl(dimethylaminopropyl) carbodiimide (EDC)/N-hydroxysuccinimide (NHS) chemistry in HBS-EP+ running buffer at 25° C., following general manufacturer guidelines. Flow cell 1 was activated with EDC/NHS and blocked with ethanolamine. […] Kinetic experiments were performed in PBS buffer containing 0.05% tween-20 (running buffer) at either 25° C. or 37° C. […] These samples were injected across flow cells 1-4 for 300 s, with a 420 s dissociation time, at flow rates of 30 μl/min or 60 μl/min to check for mass transfer limitation. All surfaces were regenerated with 2 pulses of 10 mM glycine pH 2.0 at 30 μl/min for 30 s. Raw sensograms were “double-referenced” by subtracting flow cell 1 data from flow cell 2, 3 or 4 data, and then subtracting a separate buffer cycle from each sensogram. The double-referenced sensogram data was fitted to a 1:1 Langmuir model using Biacore T100 Evaluation software version 2.0.2 to determine the association rate constant (ka), the dissociation rate constant (kd), and the equilibrium dissociation constant (KD).

In test [2] the target is HSA (Homo sapiens, UniProt P02768). The test can be described thus: Isothermal Titration calorimetry of SABA1-FGF21 fusion with HSA. Particulars: 37° C., PBS buffer. It counts as binding. On the procedure: as §1, §2
SABA-FGF21 fusion protein plus buffer was placed in the instrument sample cell at a concentration range of 0.4 to 1.0 mg/mL protein. The matching buffer was placed in the reference cell. Concentrations were determined using extinction coefficients calculated from the protein sequences of the pure proteins. The instrument reaction cell was equilibrated at 37° C. […] Data sets obtained were baseline-subtracted and corrected for the heat of dilution of the HSA injected into the cell. The resultant thermogram data was fitted using Origin™ evaluation software package (Microcal Inc.) version 2.0.2 to estimate the stochiometry, enthalpy, and equilibrium disassociation constant (KD) of the protein-protein binding reaction.
Background: In ITC the heat of successive injections is recorded.

In test [3] the target is MuSA (Mus musculus, UniProt P07724). The test can be described thus: SPR (Biacore T100) kinetics of FGF21-SABA1 fusions: MuSA. It counts as binding, murine. The arrangement: purchased Sigma A3559. Particulars: flow rate 30 μl/min, up to 1 uM analyte. On the procedure:
as §1, §2, §3

The subject of test [4] is diabetic ob/ob mice. The test is described as follows: Acute and chronic effects of SABA1-FGF21v1 in diabetic ob/ob mice, 3 weeks daily treatment. Format: in vivo, mouse. From the text: Additional acute and chronic effects of SABA1-FGF21v1 were examined in the diabetic ob/ob mice. At study termination after 3 weeks of daily treatment, reductions in plasma glucose, insulin and total cholesterol were observed. Plasma alanine aminotransferase was reduced and β-hydroxybutyrate levels were elevated.

Test [5] deals with 3T3-L1 adipocytes. The test can be described thus: pERK assay in 3T3-L1 adipocytes. It counts as cell-based, mouse. On the procedure:
3T3-L1 cells (ATCC # CL-173) are mouse fibroblasts that can be differentiated into mouse adipocytes. Since β-klotho is expressed only in differentiated 3T3-L1 cells, it was necessary to first differentiate them before performing a β-klotho pERK 1/2 assay as described in Example B3.
The cells were grown in DMEM media (Invitrogen #12430-054) supplemented with 10% characterized fetal bovine serum (Hyclone # SH30071.03) and 1X Antibiotic-Antimycotic (Gibco #15240-096). Cells were cultured in a 37° C. incubator with 5% CO2. The sub-culturing procedure was followed as described in ATCC's product information sheet with the exception that TrypLE Express (Gibco #12605) was used instead of the Trypsin-EDTA solution.
Approximately 68 hours before differentiation, 5500 cells per well (in 150 μl media) were seeded into 96 well plates (Falcon #353072); cell numbers could be adjusted according to the time of the seeding and their doubling time, but cells were 100% confluent at the time the differentiation procedure was started. […]
At the ninth to tenth day of differentiation, the growth media was aspirated off the cells and cells were starved with 200 μl of DMEM (Invitrogen #12320-032) with 2% fetal bovine serum overnight. […] The plate was finally read on a PerkinElmer Envision 2103 Multilabel Reader, using standard Alpha Screening settings.

Setting [6] is: after 3 weeks of daily treatment.

T1 sequence (A2V9Z4 25-608): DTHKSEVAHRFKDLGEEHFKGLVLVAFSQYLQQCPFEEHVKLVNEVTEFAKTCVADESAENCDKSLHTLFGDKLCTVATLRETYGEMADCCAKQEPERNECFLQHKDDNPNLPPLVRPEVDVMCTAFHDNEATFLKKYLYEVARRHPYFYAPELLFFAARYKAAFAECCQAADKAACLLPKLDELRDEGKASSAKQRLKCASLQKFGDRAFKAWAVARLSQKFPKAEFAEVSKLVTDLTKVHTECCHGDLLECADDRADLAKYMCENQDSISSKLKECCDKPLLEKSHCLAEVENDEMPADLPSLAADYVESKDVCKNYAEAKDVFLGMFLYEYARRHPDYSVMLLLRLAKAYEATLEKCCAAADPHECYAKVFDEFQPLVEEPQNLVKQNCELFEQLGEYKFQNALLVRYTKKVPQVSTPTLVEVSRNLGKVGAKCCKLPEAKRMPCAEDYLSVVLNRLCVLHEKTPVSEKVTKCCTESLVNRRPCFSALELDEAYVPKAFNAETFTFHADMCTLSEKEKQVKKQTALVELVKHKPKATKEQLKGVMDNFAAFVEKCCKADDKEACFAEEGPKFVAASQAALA
Sequence of MuSA (P07724 25-608): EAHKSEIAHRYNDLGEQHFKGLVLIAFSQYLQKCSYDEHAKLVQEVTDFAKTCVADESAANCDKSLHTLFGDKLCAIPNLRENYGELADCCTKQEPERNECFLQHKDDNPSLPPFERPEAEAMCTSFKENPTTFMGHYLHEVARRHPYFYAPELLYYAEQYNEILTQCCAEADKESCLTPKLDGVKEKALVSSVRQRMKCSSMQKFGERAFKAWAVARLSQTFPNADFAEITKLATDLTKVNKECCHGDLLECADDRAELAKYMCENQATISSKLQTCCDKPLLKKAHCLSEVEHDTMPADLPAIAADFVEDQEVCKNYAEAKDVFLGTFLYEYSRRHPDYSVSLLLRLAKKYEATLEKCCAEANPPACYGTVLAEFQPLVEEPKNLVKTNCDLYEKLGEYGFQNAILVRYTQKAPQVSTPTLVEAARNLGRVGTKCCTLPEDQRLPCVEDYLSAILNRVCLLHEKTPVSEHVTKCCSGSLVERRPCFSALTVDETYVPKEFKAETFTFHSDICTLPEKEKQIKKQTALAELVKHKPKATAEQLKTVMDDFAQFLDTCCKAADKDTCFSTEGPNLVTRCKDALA

B1: SABA1-FGF21v1: SABA1-FGF21 fusion, SEQ ID NO: 132; 293 aa; DNA SEQ ID NO: 184 (protein)
chain: MGVSDVPRDLEVVAATPTSLLISWHSYYEQNSYYRITYGETGGNSPVQEFTVPYSQTTATISGLKPGVDYTITVYAVYGSKYYYPISINYRTEIEKPSQGSGSGSGSGSGSGSPIPDSSPLLQFGGQVRQRYLYTDDAQQTEAHLEIREDGTVGGAADQSPESLLQLKALKPGVIQILGVKTSRFLCQRPDGALYGSLHFDPEACSFRELLLEDGYNVYQSEAHGLPLHLPGNKSPHRDPAPRGPARFLPLPGLPPALPEPPGILAPQPPDVGSSDPLSMVGPSQGRSPSYAS
On to B1, for which, in test [1] (25° C.), the “ka” value is 3930 M⁻¹ s⁻¹ and the “kd” value turned out to be 0.0047 s⁻¹. Also, in test [1] (37° C.), the “ka” value was 4440 M⁻¹ s⁻¹ and the “kd” value came out at 0.0123 s⁻¹. Besides, the “N (stoichiometry) by isothermal titration calorimetry” value in test [2] is on record as 0.87. Further, the “binding to MuSA” value in test [3] (25° C.) is reported as “no binding observed up”. For the same molecule, the “binding to MuSA” value in test [3] (37° C.) is given as “no binding observed up”. In addition, in test [4] (setting [6]), the Plasma alanine aminotransferase result is on record as “reduced” and the β-hydroxybutyrate levels entry was “elevated”. The “oral glucose tolerance test” value in test [4] (mouse, in vivo, po) was “increased capacity to handle a glucose load”. In addition, the “plasma glucose, insulin and total cholesterol” value in test [4] (study termination after 3 weeks of daily treatment) was “reductions”.

B2: His-tagged FGF21: non-fused His-tagged FGF21 (“FGFv1”; SEQ ID NO: 125) used as a comparator (protein)
chain: MHHHHHHPIPDSSPLLQFGGQVRQRYLYTDDAQQTEAHLEIREDGTVGGAADQSPESLLQLKALKPGVIQILGVKTSRFLCQRPDGALYGSLHFDPEACSFRELLLEDGYNVYQSEAHGLPLHLPGNKSPHRDPAPRGPARFLPLPGLPPALPEPPGILAPQPPDVGSSDPLSMVGPSQGRSPSYAS
modifications: His6 tag
What is called EC50 is the concentration that produces a half-maximal response. A lower EC50 goes with higher potency in that assay. Consider B2, for which, in test [5], the EC50 amounted to 4 ± 2 nM and the “Fold Activation” value was 2.1 ± 0.2.
